Experimental data as given in US20110263827A1 (AbbVie / Abbott, published 2011).

B1: DVD772 (bispecific antibody)
VH: EVQLVESGGGLVQPGGSLRLSCAASGFTFSIYSMNWVRQAPGKGLEWVSYISSSSSTIYYADSVKGRFTISRDNAKNSLYLQMNSLRDEDTAVYYCARDRGDFDAFDIWGQGTMVTVSSASTKGPSVFPLAPQVQLQESGPGLVKPSQTLSLTCTVSGYSISSDFAWNWIRQPPGKGLEWMGYISYSGNTRYQPSLKSRITISRDTSKNQFFLKLNSVTAADTATYYCVTAGRGFPYWGQGTLVTVSS
VL: DIQMTQSPSSLSASVGDRVTITCQASQDITNYLNWYQQKPGKAPKLLIYDASNLETGVPSRFSGSGSGTDFTFTISSLQPEDIATYNCQQCENFPITFGQGTRLEIKRTVAAPSVFIFPPDIQMTQSPSSMSVSVGDRVTITCHSSQDINSNIGWLQQKPGKSFKGLIYHGTNLDDGVPSRFSGSGSGTDYTLTISSLQPEDFATYYCVQYAQFPWTFGGGTKLEIKR
notes: DVD-Ig; HC L, LC L; variable parts only
B2: DVD770 (bispecific antibody)
VH: QVQLQQWGAGLLKPSETLSLTCAVYGGSFSGYYWSWIRQPPGKGLEWIGEINHSGSTNYNPSLKSRVTISVETSKNQFSLKLSSVTAADTAVYYCARDKWTWYFDLWGRGTLVTVSSASTKGPSVFPLAPQVQLQESGPGLVKPSQTLSLTCTVSGYSISSDFAWNWIRQPPGKGLEWMGYISYSGNTRYQPSLKSRITISRDTSKNQFFLKLNSVTAADTATYYCVTAGRGFPYWGQGTLVTVSS
VL: DIEMTQSPDSLAVSLGERATINCRSSQSVLYSSSNRNYLAWYQQNPGQPPKLLIYWASTRESGVPDRFSGSGSGTDFTLTISSLQAEDVAVYYCQQYYSTPRTFGQGTKVEIKRTVAAPSVFIFPPDIQMTQSPSSMSVSVGDRVTITCHSSQDINSNIGWLQQKPGKSFKGLIYHGTNLDDGVPSRFSGSGSGTDYTLTISSLQPEDFATYYCVQYAQFPWTFGGGTKLEIKR
notes: as for B1
B3: DVD800 (bispecific antibody)
VH: B2 VH
VL: DIEMTQSPDSLAVSLGERATINCRSSQSVLYSSSNRNYLAWYQQNPGQPPKLLIYWASTRESGVPDRFSGSGSGTDFTLTISSLQAEDVAVYYCQQYYSTPRTFGQGTKVEIKRTVAAPDIQMTQSPSSMSVSVGDRVTITCHSSQDINSNIGWLQQKPGKSFKGLIYHGTNLDDGVPSRFSGSGSGTDYTLTISSLQPEDFATYYCVQYAQFPWTFGGGTKLEIKR
notes: DVD-Ig; HC L, LC S; variable parts only
B4: DVD788 (bispecific antibody)
VH: EVQLLESGGGLVQPGGSLRLSCAASGFTFSHYVMAWVRQAPGKGLEWVSSISSSGGWTLYADSVKGRFTISRDNSKNTLYLQMNSLRAEDTAVYYCTRGLKMATIFDYWGQGTLVTVSSASTKGPSVFPLAPQVQLQESGPGLVKPSQTLSLTCTVSGYSISSDFAWNWIRQPPGKGLEWMGYISYSGNTRYQPSLKSRITISRDTSKNQFFLKLNSVTAADTATYYCVTAGRGFPYWGQGTLVTVSS
VL: QSALTQPASVSGSPGQSITISCTGTSSDVGSYNVVSWYQQHPGKAPKLIIYEVSQRPSGVSNRFSGSKSGNTASLTISGLQTEDEADYYCCSYAGSSIFVIFGGGTKVTVLGQPKAAPSVTLFPPDIQMTQSPSSMSVSVGDRVTITCHSSQDINSNIGWLQQKPGKSFKGLIYHGTNLDDGVPSRFSGSGSGTDYTLTISSLQPEDFATYYCVQYAQFPWTFGGGTKLEIKR
notes: as for B1
B5: DVD328 (bispecific antibody)
VH: QVQLQQWGAGLLKPSETLSLTCAVYGGSFSGYYWSWIRQPPGKGLEWIGEINHSGSTNYNPSLKSRVTISVETSKNQFSLKLSSVTAADTAVYYCARDKWTWYFDLWGRGTLVTVSSASTKGPQVQLQESGPGLVKPSQTLSLTCTVSGYSISSDFAWNWIRQPPGKGLEWMGYISYSGNTRYQPSLKSRITISRDTSKNQFFLKLNSVTAADTATYYCVTAGRGFPYWGQGTLVTVSS
VL: B3 VL
notes: DVD-Ig; HC S, LC S; variable parts only
B6: DVD831 (bispecific antibody)
VH: QVQLQESGPGLVKPSQTLSLTCTVSGYSISSDFAWNWIRQPPGKGLEWMGYISYSGNTRYQPSLKSRITISRDTSKNQFFLKLNSVTAADTATYYCVTAGRGFPYWGQGTLVTVSSASTKGPEVQLVESGGGLVQPGGSLRLSCAASGFTFSIYSMNWVRQAPGKGLEWVSYISSSSSTIYYADSVKGRFTISRDNAKNSLYLQMNSLRDEDTAVYYCARDRGDFDAFDIWGQGTMVTVSS
VL: DIQMTQSPSSMSVSVGDRVTITCHSSQDINSNIGWLQQKPGKSFKGLIYHGTNLDDGVPSRFSGSGSGTDYTLTISSLQPEDFATYYCVQYAQFPWTFGGGTKLEIKRTVAAPSVFIFPPDIQMTQSPSSLSASVGDRVTITCQASQDITNYLNWYQQKPGKAPKLLIYDASNLETGVPSRFSGSGSGTDFTFTISSLQPEDIATYNCQQCENFPITFGQGTRLEIKR
notes: DVD-Ig; HC S, LC L; variable parts only
B7: DVD847 (bispecific antibody)
VH: QVQLQESGPGLVKPSQTLSLTCTVSGYSISSDFAWNWIRQPPGKGLEWMGYISYSGNTRYQPSLKSRITISRDTSKNQFFLKLNSVTAADTATYYCVTAGRGFPYWGQGTLVTVSSASTKGPEVQLLESGGGLVQPGGSLRLSCAASGFTFSHYVMAWVRQAPGKGLEWVSSISSSGGWTLYADSVKGRFTISRDNSKNTLYLQMNSLRAEDTAVYYCTRGLKMATIFDYWGQGTLVTVSS
VL: DIQMTQSPSSMSVSVGDRVTITCHSSQDINSNIGWLQQKPGKSFKGLIYHGTNLDDGVPSRFSGSGSGTDYTLTISSLQPEDFATYYCVQYAQFPWTFGGGTKLEIKRTVAAPSVFIFPPQSALTQPASVSGSPGQSITISCTGTSSDVGSYNVVSWYQQHPGKAPKLIIYEVSQRPSGVSNRFSGSKSGNTASLTISGLQTEDEADYYCCSYAGSSIFVIFGGGTKVTVLG
notes: as for B6
B8: DVD755 (bispecific antibody)
VH: B7 VH
VL: DIQMTQSPSSMSVSVGDRVTITCHSSQDINSNIGWLQQKPGKSFKGLIYHGTNLDDGVPSRFSGSGSGTDYTLTISSLQPEDFATYYCVQYAQFPWTFGGGTKLEIKRTVAAPQSALTQPASVSGSPGQSITISCTGTSSDVGSYNVVSWYQQHPGKAPKLIIYEVSQRPSGVSNRFSGSKSGNTASLTISGLQTEDEADYYCCSYAGSSIFVIFGGGTKVTVLG
notes: as for B5
B9: DVD829 (bispecific antibody)
VH: QVQLQESGPGLVKPSQTLSLTCTVSGYSISSDFAWNWIRQPPGKGLEWMGYISYSGNTRYQPSLKSRITISRDTSKNQFFLKLNSVTAADTATYYCVTAGRGFPYWGQGTLVTVSSASTKGPQVQLQQWGAGLLKPSETLSLTCAVYGGSFSGYYWSWIRQPPGKGLEWIGEINHSGSTNYNPSLKSRVTISVETSKNQFSLKLSSVTAADTAVYYCARDKWTWYFDLWGRGTLVTVSS
VL: DIQMTQSPSSMSVSVGDRVTITCHSSQDINSNIGWLQQKPGKSFKGLIYHGTNLDDGVPSRFSGSGSGTDYTLTISSLQPEDFATYYCVQYAQFPWTFGGGTKLEIKRTVAAPSVFIFPPDIEMTQSPDSLAVSLGERATINCRSSQSVLYSSSNRNYLAWYQQNPGQPPKLLIYWASTRESGVPDRFSGSGSGTDFTLTISSLQAEDVAVYYCQQYYSTPRTFGQGTKVEIKR
notes: as for B6

target: T1, EGFR (UniProt P00533 25-645, limits assumed, biotinylated); assay: direct bind ELISA, C-term VD;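 note: ELISA with antibody or DVD-Ig preparations applied to target antigen-coated plates for 1 h at room temperature, TMB colour development, absorbance read at 450 nm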
T1 construct: ELISA antigen; construct not described

EC50 | Binder
77.2 nM | B1
15.2 nM | B2
67.3 nM | B3
18 nM | B4
94.9 nM | B5

target: T2, ErbB3 (UniProt P21860 20-643, limits assumed, biotinylated); assay: direct bind ELISA, C-term VD;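 note: ELISA with antibody or DVD-Ig preparations applied to target antigen-coated plates for 1 h at room temperature, TMB colour development, absorbance read at 450 nm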
T2 construct: ELISA antigen

EC50 | Binder
1.42 nM | B6
12.9 nM | B7
27.7 nM | B8
41.4 nM | B9

target: T1, EGFR; assay: direct bind ELISA, N-term VD;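 note: antibody or DVD-Ig preparations bound to immobilized target antigen on ELISA plates, 1 h at room temperature, TMB detection read as absorbance at 450 nm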

EC50 | Binder
4.6 nM | B6
2.92 nM | B7
3.26 nM | B8
3.81 nM | B9

target: T2, ErbB3; assay: direct bind ELISA, N-term VD;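 note: antibody or DVD-Ig preparations bound to immobilized target antigen on ELISA plates, 1 h at room temperature, TMB detection read as absorbance at 450 nm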

EC50 | Binder
31.4 nM | B1
1.55 nM | B2
2.06 nM | B3
3.14 nM | B4
1.14 nM | B5
